Results on 10 molecules are retold here after patent publication US20250304675A1 (MHS CARE INNOVATION, published 2025).

Experiment [1] deals with human gastric inhibitory polypeptide (glucose-dependent insulinotropic polypeptide) (human).
Experiment [2] concerns the target T1, gastric inhibitory polypeptide (GIP), species not stated at the place of the result (Homo sapiens (Human), UniProt P09681 52-93).
T1 peptide: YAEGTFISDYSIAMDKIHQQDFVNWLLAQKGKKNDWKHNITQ
Briefly: hybridoma screening; assay not further stated.

For experiment [3], the target named is T2, human gastric inhibitory polypeptide (glucose-dependent insulinotropic polypeptide) (human).
T2 construct: also called human GIP; hGIP
T2 peptide: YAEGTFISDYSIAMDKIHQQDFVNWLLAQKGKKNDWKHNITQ
Briefly: direct binding ELISA, CHO supernate on coated human GIP; 3rd of 10 in the printed order. On the procedure:
(§1) CHO cells co-transfected with the mammalian expression vectors were grown in culture and the supernate collected. The supernate was evaluated for the presence of GIP-binding mAbs by direct binding ELISA Human GIP was fixed to the bottom of the wells on 96-well plates. Serial dilutions of the supernate were added to different wells of the 96-well plate. After a one hour incubation, the wells were washed twice with PBS before a secondary antibody that specifically binds to human IgG was added to each well. The antibody that specifically binds to human IgG was conjugated with the enzyme horse radish peroxidase (HRP). After incubation for one hour, the wells were washed with PBS before the HRP substrate was added. If HRP was present in a well, the substrate was converted to a colored compound. The amount of color intensity was read using a spectrophotometer. The amount of color produced was proportional to the amount of HRP-antibody conjugate remaining in each well. The amount of color produced was also proportional to the amount of mAb bound to hGIP in each well.

For experiment [4], the target named is T2, human gastric inhibitory polypeptide …. Briefly: direct binding ELISA, CHO supernate on coated human GIP; 6th of 10 in the printed order. How it is done:
as §1

Experiment [5] shares this target. Briefly: direct binding ELISA, CHO supernate on coated human GIP; 10th of 10 in the printed order. How it is done: as §1
In experiment [6] the target is T1, gastric inhibitory polypeptide (GIP), …. Briefly: modified Schild's assay plot, reporter cell line expressing GIP receptors (derived from a functional assay).
Experiment [7] deals with T2, human gastric inhibitory polypeptide …. Put plainly: direct binding ELISA, CHO supernate on coated human GIP; 9th of 10 in the printed order. How it is done: as §1
Experiment [8] shares this target. Briefly: direct binding ELISA, CHO supernate on coated human GIP; 4th of 10 in the printed order. On the procedure:
as §1

Experiment [9] has the same target. Briefly: direct binding ELISA, CHO supernate on coated human GIP; 7th of 10 in the printed order. How it is done: as §1

For the molecule Fc, the Relative Activity (beta-galactosidase of LGIPR3a reporter cells expressing rat GIPR; Fc mixed with 0.1 nM hGIP; bar as high as that of GIP alone, 0.098, so no neutralization) in experiment [1] was determined as 0.105.

B1: 14B9 antibody (antibody, V domains shown)
VH: QVQLQESGAALVRSGASVKLSCTASGFNIKDYYFHWVKQRPDQGLEWIGWIDPENGDTEYAPNFQVKATMTADTYSNTAYLHLSSLTSEDTAVYYCNSYGNNYFDYWGQGTTVTVSS
VL: DIQLTQSPAIMAASLGQKVTMTCSASSSVSSSYLHWYQQKSGASPKSLIHRTSNLASGVPARFSGSGSGTSYSLTISSVEAEDDATYYCLQWSGFPFTFGSGTKLEIKR
notes: Comparison antibody
Turning to B1, the binding result in experiment [2] is given as “no binding”.

B2: LC3/HC2 humanized antibody (antibody, V domains shown)
VH: QVQLVQSGAEVKKPGATVKISCKASGFNIRDYYLHWVQQAPGKGLEWMGWIDPENGDTEYAPKFQGRVTITADTSTNTAYMELSSLRSEDTAVYYCNVYGIYFMDYWGQGTMVTVSS
VL: DIQMTQSPGTLSLSPGERATLSCRASSSISSNSLHWYQQKPGQAPRLLIYRTSNRATGIPARFSGSGSGTDYTLTISSLEPEDFAVYYCQQGSSFPRMLTFGGGTKVEIKR
notes: Tested as CHO supernate
Consider B2, for which the binding result in [3] was “binds”.

B3: LC3/HC1 humanized antibody (antibody, V domains shown)
VH: QVQLVQSGAEVKKPGATVKISCKVSGFNIRDYYLHWVQQAPGKGLEWMGWIDPENGDTEYAPKFQGRVTITADTSTDTAYMELSSLRSEDTAVYYCNVYGIYFMDYWGQGTMVTVSS
VL: DIQMTQSPGTLSLSPGERATLSCRASSSISSNSLHWYQQKPGQAPRLLIYRTSNRATGIPARFSGSGSGTDYTLTISSLEPEDFAVYYCQQGSSFPRMLTFGGGTKVEIKR
notes: Tested as CHO supernate
B3: the binding result in experiment [4] was “binds”.

B4: LC3/HC3 humanized antibody (antibody, V domains shown)
VH: QVQLQESGAEVKKPGASVKVSCKASGFNIRDYYLHWVRQAPGQGLEWMGWIDPENGDTEYAPKFQGRVTTTADTSISTAYMELSRLRSDDTAVYYCNVYGIYFMDYWGQGTLVTVSS
VL: DIQMTQSPGTLSLSPGERATLSCRASSSISSNSLHWYQQKPGQAPRLLIYRTSNRATGIPARFSGSGSGTDYTLTISSLEPEDFAVYYCQQGSSFPRMLTFGGGTKVEIKR
notes: Tested as CHO supernate
In the case of B4, the binding result in experiment [5] was “binds”.

B5: 10g10 monoclonal antibody (original mouse mAb) (antibody, V domains shown)
VH: QVQLQESGAELVRSGASVKLSCTASGFNIRDYYLHWIKQRPEQGLEWIGWIDPENGDTEYAPKFQDKATVTADTSSNTAYLQLNSLTSEDTAVYYCNVYGIYFMDYWGQGTTVTVSS
VL: DIQLTQSPSTMAASPGEKITITCSASSSISSNSLHWYQQKPGFSPKLLIYRTSNLASGVPGRFSGSGSGTSYSLTIGTMETEDVATYYCQQGSSFPRMLTFGTGTKLEIKR
notes: Mouse hybridoma antibody; also called 10g10 mAb; 10g10 GIP mAb
Consider B5, for which, in experiment [6], binding was characterised by a dissociation constant (Kd) of 3200 nM.

B6: LC1/HC3 humanized antibody (antibody, V domains shown)
VH: QVQLQESGAEVKKPGASVKVSCKASGFNIRDYYLHWVRQAPGQGLEWMGWIDPENGDTEYAPKFQGRVTTTADTSISTAYMELSRLRSDDTAVYYCNVYGIYFMDYWGQGTLVTVSS
VL: DIQMTQSPSSVSASVGDRVTITCRASSSISSNSLHWYQQKPGKAPKLLIYRTSSLQSGVPSRFSGSGSGTDYTLTISSLQPEDFATYYCQQGSSFPRMLTFGQGTKLEIKR
notes: Tested as CHO supernate
Take B6: in [7], the binding result was “binds”.

B7: LC2/HC2 humanized antibody (antibody, V domains shown)
VH: QVQLVQSGAEVKKPGATVKISCKASGFNIRDYYLHWVQQAPGKGLEWMGWIDPENGDTEYAPKFQGRVTITADTSTNTAYMELSSLRSEDTAVYYCNVYGIYFMDYWGQGTMVTVSS
VL: DIQLTQSPSSVSASVGDRVTITCRASSSISSNSLHWYQQKPGKAPKLLIYRTSNLQSGVPSRFSGSGSGTDYTLTISSLQPEDFATYYCQQGSSFPRMLTFGQGTKLEIKR
notes: CHO supernate in the ELISA; Protein A purified in the neutralization assay; also called mAbH; GIP mAbH
B7 showed a Kd in experiment [6] of 2200 nM.

B8: LC1/HC2 humanized antibody (antibody, V domains shown)
VH: QVQLVQSGAEVKKPGATVKISCKASGFNIRDYYLHWVQQAPGKGLEWMGWIDPENGDTEYAPKFQGRVTITADTSTNTAYMELSSLRSEDTAVYYCNVYGIYFMDYWGQGTMVTVSS
VL: DIQMTQSPSSVSASVGDRVTITCRASSSISSNSLHWYQQKPGKAPKLLIYRTSSLQSGVPSRFSGSGSGTDYTLTISSLQPEDFATYYCQQGSSFPRMLTFGQGTKLEIKR
notes: Tested as CHO supernate
For B8, in experiment [8], the binding result is given as “binds”.

B9: LC1/HC1 humanized antibody (antibody, V domains shown)
VH: QVQLVQSGAEVKKPGATVKISCKVSGFNIRDYYLHWVQQAPGKGLEWMGWIDPENGDTEYAPKFQGRVTITADTSTDTAYMELSSLRSEDTAVYYCNVYGIYFMDYWGQGTMVTVSS
VL: DIQMTQSPSSVSASVGDRVTITCRASSSISSNSLHWYQQKPGKAPKLLIYRTSSLQSGVPSRFSGSGSGTDYTLTISSLQPEDFATYYCQQGSSFPRMLTFGQGTKLEIKR
notes: Tested as CHO supernate
B9: the binding result in experiment [9] is listed as “binds”.
